Data on ten sequences can be found in the Immune Epitope Database (IEDB).

Assay [1] concerns the target HLA-A*11:01. Nature of the assay: IEDB peptide-MHC binding, purified MHC/competitive/fluorescence; ≥ and ≤ were set here for values at or beyond the usual limits of such assays.
Assay [2] addresses HLA-A*24:02. The assay is described as above. To be noted: source organism: Vaccinia virus Copenhagen.
Assay [3] has as its target HLA-B*15:01. The description is as above.
Assay [4] deals with HLA-A*02:01. The assay is described as above.
Assay [5] addresses HLA-B*39:01. Nature of the assay: IEDB peptide-MHC binding, purified MHC/competitive/fluorescence; filed as Kd, often an IC50 or EC50 that approximates it; ≥ and ≤ were set here for values at or beyond the usual limits of such assays.
Assay [6] deals with HLA-A*02:03. Described as above. To be noted: source organism: Human immunodeficiency virus 1.
The target of assay [7] is HLA-A*30:01. Described as above. The note with it: source organism: Human immunodeficiency virus 1.
The target in assay [8] is HLA-B*15:17. Described as above.
Assay [9] addresses HLA-A*26:01. Described as above.
Assay [10] concerns the target HLA-A*02:01. Described as above.
In assay [11] the target is HLA-B*27:03. The description is as above.
Assay [12] deals with HLA-A*03:01. The description is as above.
Assay [13] has as its target HLA-B*51:01. The assay is described as above.
Assay [14] has as its target HLA-A*29:02. Described as above.
In assay [15] the target is HLA-B*57:01. The assay is described as above.
Assay [16] addresses HLA-B*18:01. The assay is described as above.
Assay [17] deals with HLA-A*24:03. The assay is described as above.
In assay [18] the target is HLA-B*15:03. Kind of assay: IEDB peptide-MHC binding, purified MHC/competitive/radioactivity; filed as Kd, often an IC50 or EC50 that approximates it; ≥ and ≤ were set here for values at or beyond the usual limits of such assays. To be noted: source organism: Vaccinia virus WR.
Assay [19] has as its target HLA-B*39:01. Kind of assay: IEDB peptide-MHC binding, purified MHC/direct/fluorescence; filed as Kd, often an IC50 or EC50 that approximates it; ≥ and ≤ were set here for values at or beyond the usual limits of such assays.
The target of assay [20] is HLA-A*11:01. Described as above.
For assay [21], the target named is HLA-A*01:01. The description is as above.
The target in assay [22] is HLA-B*15:01. Described as above.
The target in assay [23] is HLA-B*46:01. The assay is described as above.
The target in assay [24] is HLA-A*02:01. The description is as above. The note with it: source organism: Mycobacterium tuberculosis.
Assay [25] addresses HLA-B*44:02. Described as above.
For assay [26], the target named is HLA-B*27:05. The assay is described as above.
The target of assay [27] is HLA-A*69:01. The assay is described as above. To be noted: source organism: Mycobacterium tuberculosis.
Assay [28] concerns the target HLA-A*03:01. The assay is described as above.
For assay [29], the target named is HLA-A*29:02. The description is as above. The note with it: source organism: Mycobacterium tuberculosis.
Assay [30] addresses HLA-B*57:01. The assay is described as above.
Assay [31] deals with HLA-B*18:01. The description is as above. To be noted: source organism: Mycobacterium tuberculosis.
Assay [32] concerns the target HLA-A*31:01. Described as above.
Assay [33] addresses HLA-A*68:02. Kind of assay: IEDB peptide-MHC binding, purified MHC/competitive/fluorescence; filed as Kd, often an IC50 or EC50 that approximates it; ≥ and ≤ were set here for values at or beyond the usual limits of such assays. To be noted: source organism: Bos taurus.
In assay [34] the target is HLA-B*46:01. Described as above.
In assay [35] the target is HLA-A*69:01. The description is as above. To be noted: source organism: Bos taurus.
The target in assay [36] is HLA-B*07:02. Kind of assay: IEDB peptide-MHC binding, purified MHC/direct/fluorescence; filed as Kd, often an IC50 or EC50 that approximates it; ≥ and ≤ were set here for values at or beyond the usual limits of such assays. The note with it: source organism: Tai Forest virus - Cote d'Ivoire, Cote d'Ivoire, 1994.
For assay [37], the target named is HLA-B*58:01. The assay is described as above. To be noted: source organism: Tai Forest virus - Cote d'Ivoire, Cote d'Ivoire, 1994.
The target in assay [38] is HLA-A*02:03. The assay is described as above. To be noted: source organism: Orthohantavirus negraense.
Assay [39] concerns the target HLA-A*26:01. The description is as above. The note with it: source organism: Orthohantavirus negraense.
[40] abbreviates: source organism: Vaccinia virus Copenhagen.
[41] abbreviates: source organism: Ephydatia fluviatilis.
Setting [42] is: source organism: Vaccinia virus.
Setting [43] is: source organism: Mycobacterium tuberculosis.
[44] abbreviates: source organism: Tai Forest ebolavirus.
Where [45] appears, read: source organism: Tai Forest virus - Cote d'Ivoire, Cote d'Ivoire, 1994.
Where [46] appears, read: source organism: Orthohantavirus negraense.

KTFKDESIF: the IC50 – broadly, the concentration that gives 50% inhibition – in assay [1] (setting [40]) was determined as 61 µM; in assay [2], 24.2 µM; in assay [3] (setting [40]) it was 9.29 µM; in assay [4] (setting [40]), 66.8 µM.

Take EKLKSLYNTV: the equilibrium dissociation constant (Kd) – broadly, the equilibrium constant for the complex coming apart – in [5] (source organism: Human immunodeficiency virus 1) was 2.81 µM; in assay [6], 0.643 µM; in assay [7], 0.175 µM.

TLKPGTMSV: the Kd in assay [8] (setting [41]) was at least 20 µM; in assay [5] (setting [41]), at least 20 µM; in assay [9] (setting [41]), at least 20 µM; in assay [10] (setting [41]), 0.041 µM; in assay [11] (setting [41]), at least 20 µM; in assay [12] (setting [41]), at least 20 µM. Besides, the Kd in assay [13] (setting [41]), in [14] (setting [41]), in assay [15] (setting [41]), in assay [16] (setting [41]) and in assay [17] (setting [41]) was at least 20 µM in each case.

As for IWWEQYMQY, the Kd in assay [14] (source organism: Shigella boydii) was at most 0.0001 µM.

Take KQKMFSNNV: the Kd in assay [18] was found to be 0.0193 µM. For the same sequence, the values for the IC50 in assay [1] (setting [42]), in [3] (setting [42]) and in assay [4] (setting [42]) were at least 116 µM, 44.4 µM and 7.07 µM, respectively.

For the sequence EKAAWGVAL, the equilibrium dissociation constant (Kd) was 0.052 µM in assay [19] (setting [43]); at least 20 µM in [20] (setting [43]); at least 20 µM in assay [21] (setting [43]); at least 20 µM in [22] (setting [43]); at least 20 µM in assay [23] (setting [43]); at least 20 µM in [24]. The Kd in assay [25] (setting [43]), in assay [26] (setting [43]), in [27], in [28] (setting [43]), in assay [29] and in assay [30] (setting [43]) was at least 20 µM throughout. Further, the Kd in assay [31] and in assay [32] (setting [43]) was at least 20 µM each time.

With KLGEGFKSL, the Kd is at least 20 µM in [8] (source organism: Bos taurus); at least 20 µM in assay [5] (source organism: Bos taurus); at least 20 µM in assay [33]; at least 20 µM in assay [34] (source organism: Bos taurus); at least 20 µM in [9] (source organism: Bos taurus); 0.0151 µM in assay [10] (source organism: Bos taurus). For the same sequence, the dissociation constant Kd in assay [11] (source organism: Bos taurus), in [35], in [12] (source organism: Bos taurus), in assay [13] (source organism: Bos taurus), in [14] (source organism: Bos taurus) and in [15] (source organism: Bos taurus) was at least 20 µM in each case. Moreover, the Kd in [16] (source organism: Bos taurus) and in [17] (source organism: Bos taurus) was at least 20 µM each time.

In the case of FAEGVIAFL, the Kd in assay [9] (setting [44]) is at least 20 µM; in assay [11] (setting [44]), at least 20 µM; in assay [16] (setting [44]), at least 20 µM; in assay [19] (setting [45]) it was 0.539 µM; in assay [20] (setting [45]), at least 20 µM; in [21] (setting [45]), at least 20 µM. Moreover, the Kd in assay [22] (setting [45]), in assay [36], in [23] (setting [45]), in assay [25] (setting [45]), in assay [26] (setting [45]) and in assay [28] (setting [45]) was at least 20 µM each time. Besides, the Kd in [37], in [30] (setting [45]) and in assay [32] (setting [45]) was at least 20 µM each time.

As to NIYETEFFM, the Kd in assay [8] (setting [46]), in assay [5] (setting [46]), in assay [34] (setting [46]), in assay [11] (setting [46]), in assay [13] (setting [46]) and in assay [15] (setting [46]) was at least 20 µM each time. For the same sequence, the Kd was at least 20 µM in assay [16] (setting [46]), at least 20 µM in assay [38], 1.11 µM in assay [39] and at least 20 µM in assay [28] (setting [46]).

YRKEQQNAV gave a Kd in assay [19] (source organism: Influenza A virus (A/Belfast/53582/2004(H3N?))) of 0.62 µM.
